Results taken from US20250215052A1 (UNIVERSITY OF COPENHAGEN, published 2025).
Where no end group is shown, it is not given here.

Molecular target: T1, Protein Interacting with C Kinase-1 (PICK1), purified recombinant (UniProt Q9EP80 1-416)
T1 construct: also called purified PICK1
Test: fluorescence polarization competition, tracer 5-FAM-TAT-C5, purified PICK1

T1 sequence (Q9EP80 whole entry): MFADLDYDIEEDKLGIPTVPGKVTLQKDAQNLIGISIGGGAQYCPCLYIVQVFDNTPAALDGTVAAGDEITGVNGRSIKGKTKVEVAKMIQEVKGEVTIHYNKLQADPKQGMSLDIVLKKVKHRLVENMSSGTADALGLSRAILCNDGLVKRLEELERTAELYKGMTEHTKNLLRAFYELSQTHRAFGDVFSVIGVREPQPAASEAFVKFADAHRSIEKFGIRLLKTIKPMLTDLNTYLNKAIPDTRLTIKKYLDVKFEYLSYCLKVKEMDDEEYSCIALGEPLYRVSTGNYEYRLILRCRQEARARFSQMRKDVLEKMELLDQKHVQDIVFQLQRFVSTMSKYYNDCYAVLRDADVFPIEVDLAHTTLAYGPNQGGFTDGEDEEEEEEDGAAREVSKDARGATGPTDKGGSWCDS

B1: MAP-P4-(C5)2 (peptide)
peptide 1: HWLKV
peptide 2: KLALKLALKALKAALKLA
modifications: not fully specified (N-terminus); also: dimer: two HWLKV copies joined at N-termini by NPEG4 linker, MAP peptide conjugated to the NPEG4 linker
notes: also called MAP-peptide
  Fold affinity change (vs TAT-P4-(C5)2): 0.8 fold
  Ki: 5.1 nM
